B1: 1006 (protein, listed as Geobacillus sp.)
chain: MAAIKATDLRTEGILNPFGLDAERPRLSWSFGQPAGAGSGQSAYRIAVASSEERLKLGEPDVWDSGIVRSCEHVSIPYEGASLMPRRRYYWHVTAWDGQGQPAVSKAAWWETGLLAEAKWSERWIGDAAEAADRGPMIQLRKSFEVKKPVARARAYVTGLGHYELRLNGAKVGDRQLEPGWTNYDKTVLYSVYDVTPGLRQGENAVGVLLGNGFYRVAGGRYAKFKGSFGNPKCLAELVIEYADGTAETIVTDGTWSLSDSPLTFSCIYGGEDYDAGLERTGWDGPGFVEDGDWRRACELEPPPGKLTAQSSPPLAITKRLPARSVSEPRRGVYVYDLGQNFSGWPCIRVSGPNGTRVKLKPAELLTEEGLANQKYSGSPYELNYVLKGEGIEEWHPRFTYYGFRYVQVEGAAPAGEGVEESDLPVLHGLEGHMIGPDVEDAGGFRCSDPLLNRIHEIINWAILSNMKSVFTDCPHREKLGWLEQLHLMGPSVMFNYECEALLEKIMRDMSDAQLPNGMVPTTAPEYVVFEEPWHMFRDAAAWGGSYILLAWEMLRRYGSVGTLERHYEGMGRYVHYLTEASDGFILRGGLGDWYDIGPKGPGFAQNTSVALVETAIFFGLARALGEIALVLGKAEDASAHSRLSESIRTAFHSAFYDTANAMYAEGSDTAIAMPLAIGLAPEELRGVLLDRLVRNIGERGWQTTAGDVGHRYVLSALASGGRSDVVGKMARNPHAPGYAYQVAHGATSLTEAWDGPTVGKSQNHFMLGHLEEWLYASLAGLDYRYRPEVGRYLVKAKPTVVQGVEWAEAWQQLRSGRASVRWELGPSNQMTVRVDIPANSEGLIRIPSSPDTPVLASGPDVAYEGHEDGHAVYRSGPGSYCFTFAANHRTTEMERERM
B2: 1009 (protein)
chain: MFKILRPIGFLAALLLLTGEMVMGQKSTQIISPSVFQNPPSTYGIRCWWWWLNGNVDKEVITRDLEEMKAKGFSGACLFDAGGAEQRGNAQVPAGPMFGSPQWRELYIHAMREADRLGLVMSMSIQSGWNLGGPDITAEESAKQVAFSQVQVKGNTRISQELPMPKTHHDFYRDIVVLAIPTKVFANRPPIRDFENKAATREVGASVPETRPLLTDIPGTPGEEDASKKQVLNITRHFKNGKLEWRAPAGEWTVLRFGYTATDAEVSTSSGDWQGLVIDYMSEKAFNRYWDTNVEPLLKAIGPLAGKTLRYLQTDSFEAGGMNWTDGFEKEFIKHRGYDPIPYLPVLAGKIIDSREVSNRFLSDLRKTLADLIAEKHYGVFSKRSAAYGIGIQPESAGPHAGPFDGLKNYGYSEIMMSEFWSPSPHRPRPIDRFFVKQAGSAAKIHNKKLVGAESFTTIGPHWNDVMWSDMKPSVDHEFSAGLNLVYLHTFTASPKAMGIPGQEYFAGTHFNPNVTWWNQSTAFIQYLTRCQYLLQSGTSVADVLYYYGDHSPNLGRLKEDDPAKALPGFDYDLINEDRLMELQAKDGKIFLPHGVSYRVLVLPDHKTLSLKALQKVEALVKEGASVIGSKTVTTASLVKYPASEQTVRQIADGLWGTGNEATGSRNVGKGTIAWGITAADFLRSKGVHFDMEITARETGSRYDYIHREDTGADFYFISSQNRAASKMTAAFRMTGKQPELWNPVTGETRPATSFYQKDGKTYIPLEFDPYGSVFVVFRDDIAKDQNGSAASNFVHLETATTLHGSWDVAFDPAWGGPAAVVFNELVSWPDRNEEGIKYYSGKAVYSKKFDASQDVAESKQVFLDLGEVKDIGIAKVTLNGKDLGILWAPPLRVPVGGVLKEKDNVLQIEVVNTWRNRLIGDRTKPVEKRFTKTNVKVLETWQLTPSGLLGPVRLLTGSEQ
modifications: Dyadobacter fermentans
B3: 1044 (protein, listed as Streptomyces sp.)
chain: MHETHPRRGGMTRRSVLAAGLTTGVLAALGPAAEAAASPAASPAASPAASASAGATPTASWFAAPARAVRPKFRWWWPDGLVDPAEIAREIDQMADAGFGGAEIAAVHHSISDTSVLDTAHHGWGSAPWRDGVKAALRQAARRGLTVDLTLGPSWPVAVPGVTPDDEAAVKELAYGKATLTGGAAFDGPVPAPVYAPASGVTVQKLFAVQAARVDTAYSSGKATGLDVDSVTDLTNRVADGNLRWTPPDSGTWVVLSYWQRGSGQQPEAGPHSSPAAYVIDHFSAAGTAAVTRYWDTAILDSTLRKLLKAAGGAFFEDSVELESKGLQWTPGLPDAFRAHTGRDLLPYLPAVILDNSNQVFAFEARLTQEIRHDFWETVSNLFNEHHLGALKKWAHGHGMKLRSQPYGLQTDAIASAAVLDIPEGESLGFKNLDDYRCLAGGRDMAGSRVLSCESGAYAGGAYNTTWDKFLRTMGGAYAAGVNQTVIHGFSYATAPGVSWPGFAAFSPYSGAPGYGESWGPRQPTWHHVADVAGYIGRVQQVLQSGTVRADVAVFRQTGYTATGIGASWLTSTGVPLGWTHQFLSGPLLDLPNAKVSGKRLAPDGPAYKALFLEGDFFYGSTPTLSVDDAHKLLKFARAGLPTVLLGAFGQALTPGLPDDGETDELRALTAELLALPNVRNVTDKTLVGAAFAELGVTSDVSYSVSSTLLNAHRVTDDADFYYLCNGKHAETVKPPVAAIDHDVTLRSTVRGGAGTVPYLLDPWSGRVTRLARYTRDGDAFTFRVTLQPGETLVVALGRPGLFGNRDGNRPHAVATDADEALFTGGRLAVRASAAGTFTTTLSTGRKVTTKVAEVPAAVTPDRWTLSVDDWRPGADATSTEVVRHSLTLDALLPWSQIPELADVGGIGTYRTTVTLPKSWSSATGALLRLGSVTDTCRVTVNGVRLDPVDRVNPVVDLGGRLRKGANTLEIEVATPLFNRLRVSNPAVFGTAARQAYGLVGPVQLVPYVQRTVA
B4: 1081 (protein)
chain: MKNSNLFAKLLAVVLIFLSNPTLAVEWTAEWIWSKERFTDPNSWVVIRKEVNLESVGQNSTAYISADTKYWLWINGQLVVFEGSYTGGPSPVKPSPRVDFYPIASNKYYDQVDIGRYLKKGKNTIAALAWYYGDNGQKGTYISSNTGGFIFQAHVGDNVIATDSSWKVLPHPAYDKKVIKKSPYRVAAWSVKYDARKDLNDWSNKAWYMPGYDDSDWQTPRIKRQPPRPPFFGLYPSEIPPLNNYGLANCENYPESKFPFISDGKTIKCKLDFNKNFTPYFDIEAKAGQQIHIKSNMRLNTIETFYTTKAGRQQFESYSWLNGRIIEYRIPKGVKVHGLKYRWTGVGTTPGHFEADDAWYSRIWQMAENTLYICARDNFMDTPDRERGLWIGDVADQASYLFYSMDKPGRDLLKKAIKVTLAFSDSESGIFAGLGPGRFRELPAQSLQFIEQGIWHYYYNTGDLETLKFAYPYVHRYLTLWGIKDNGLATFRTGDWKWTDWGPQDTIDYDVIQNALYYSALVSARKMAKAVGDYTHIGLYSHRINSIKQAYQKHYWQNGYFSSNPNKFKDDRANAIAILFGLAKPEQYQQIVDNVLIPNHFASPHFEWMVYNAMAIAGRYEDALQRMKTRYAKQVDNQALSTLAEYLPSGGTENHAWNAPSTVLSQHIAGIAPTSVAWESYQVMPNMAHFKRVKQFVPSVQGDIDFEIQRDQQTVKIEIDSPENTTAIIGVPKQYFAIQTIMVNGKKLWENGQLTASISGIKLAGEDNKYVKFEVQPGHWLVTAQR
modifications: Catenovulum agarivorans

This note sets out measurements from patent US20240026407A1, “MODIFICATION OF SAPONINS” (GLAXOSMITHKLINE BIOLOGICALS SA, priority 2020, published 2024).

The nature of the first test: Experiment 6-1: screening of rhamnosidases for derhamnosylation of saponins in treated bark extract (2%), QS-17 2296 to QS-18 2150 (PAR %). Particulars: TBE 2%, pH 7.5, 30 degC, 18 h; TIC peak area ratio percent of rhamnosylated starting saponin to derhamnosylated product, LCMS/MS; negative controls 4.876, 5.225. The test is classed as biochemical, Quillaja saponaria.
With B1, the “QS-17 (PAR %)” value is on record as 5.339%.

For B2, the “QS-17 (PAR %)” value turned out to be 5.408%.

With B3, the “QS-17 (PAR %)” value is reported as 5.370%.

Turning to B4, the “QS-17 (PAR %)” value is given as 5.348%.

The next test is described as follows: Experiment 6-1: screening of rhamnosidases for derhamnosylation of saponins in treated bark extract (2%), desglucosyl-QS-17 2134 to QS-21 1988 (PAR %). The test is classed as biochemical, Quillaja saponaria. Conditions: TBE 2%, pH 7.5, 30 degC, 18 h; TIC peak area ratio percent, LCMS/MS; negative controls 2.719, 2.158.
Regarding B1, the “Peak75 (PAR %)” value turned out to be 2.645%.

Consider B2, for which the “Peak75 (PAR %)” value is 2.379%.

Consider B3, for which the “Peak75 (PAR %)” value is on record as 2.274%.

Take B4: the “Peak75 (PAR %)” value was 2.473%.

The next test is described as follows: Experiment 6-1: screening of rhamnosidases for derhamnosylation of saponins in treated bark extract (2%), QS-17 2310 to QS-18 2164 (PAR %). Particulars: TBE 2%, pH 7.5, 30 degC, 18 h; TIC peak area ratio percent, LCMS/MS; negative controls 3.061, 2.429. The class given is biochemical, Quillaja saponaria.
Take B1: the “Peak57 (PAR %)” value is listed as 3.237%.

With B2, the “Peak57 (PAR %)” value is on record as 3.762%.

With B3, the “Peak57 (PAR %)” value stood at 3.156%.

Turning to B4, the “Peak57 (PAR %)” value worked out at 2.624%.

A short description of a further test: Experiment 6-1: specificity of rhamnosidases towards other rhamnose residues (C3 saccharide rhamnose, C28 saccharide rhamnose). The class given is biochemical, Quillaja saponaria. Conditions: TBE 2%, pH 7.5, 30 degC, 18 h; LCMS/MS; negative controls 0.18, 0.17.
B1: the “ratio PP/QS-21” value was found to be 0.18.

B2: the “ratio PP/QS-21” value turned out to be 0.16.

For B3, the “ratio PP/QS-21” value is 0.16.

Regarding B4, the “ratio PP/QS-21” value was found to be 0.17.
